Data from patent US20040213780A1.
One block for each substance: values may come before it.

Columns and labels:
Experiment in all cases: cell-based or functional assay
[1] = molecular target: purified Sp1 (Promega Corp.) (UniProt P08047)
[2] = molecular target: Sp1 in human brain tissue (endogenous) (human) (UniProt P08047)
[3] = molecular target: Sp1 in nuclear extracts of primary rat striatal neurons (endogenous) (rat) (UniProt Q01714)
Chain of Sp1 in nuclear extracts of primary rat striatal neurons (endogenous) (rat) (Q01714 2-786 limits assumed): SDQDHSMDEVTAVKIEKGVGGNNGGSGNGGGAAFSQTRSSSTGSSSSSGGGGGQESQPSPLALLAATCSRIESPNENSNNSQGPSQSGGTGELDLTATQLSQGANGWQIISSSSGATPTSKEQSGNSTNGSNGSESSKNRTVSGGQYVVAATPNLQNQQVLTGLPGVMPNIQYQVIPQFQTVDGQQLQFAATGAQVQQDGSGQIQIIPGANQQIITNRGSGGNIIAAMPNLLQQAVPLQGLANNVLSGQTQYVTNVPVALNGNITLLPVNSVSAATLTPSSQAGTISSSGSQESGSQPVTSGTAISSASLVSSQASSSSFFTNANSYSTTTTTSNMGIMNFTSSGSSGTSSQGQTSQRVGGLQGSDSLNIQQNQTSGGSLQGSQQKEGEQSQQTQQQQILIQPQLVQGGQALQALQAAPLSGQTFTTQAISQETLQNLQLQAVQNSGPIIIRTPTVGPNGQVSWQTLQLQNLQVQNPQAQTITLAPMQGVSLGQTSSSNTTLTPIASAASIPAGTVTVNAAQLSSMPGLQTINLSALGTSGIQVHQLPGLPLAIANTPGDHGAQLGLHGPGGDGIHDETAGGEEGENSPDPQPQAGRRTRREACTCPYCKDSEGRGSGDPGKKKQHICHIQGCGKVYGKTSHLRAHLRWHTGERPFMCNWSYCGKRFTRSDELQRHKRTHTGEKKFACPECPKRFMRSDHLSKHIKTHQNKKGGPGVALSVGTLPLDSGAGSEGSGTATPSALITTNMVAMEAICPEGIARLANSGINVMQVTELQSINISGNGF

Chain of Sp1 in human brain tissue (endogenous) (human) (P08047 2-785 limits assumed): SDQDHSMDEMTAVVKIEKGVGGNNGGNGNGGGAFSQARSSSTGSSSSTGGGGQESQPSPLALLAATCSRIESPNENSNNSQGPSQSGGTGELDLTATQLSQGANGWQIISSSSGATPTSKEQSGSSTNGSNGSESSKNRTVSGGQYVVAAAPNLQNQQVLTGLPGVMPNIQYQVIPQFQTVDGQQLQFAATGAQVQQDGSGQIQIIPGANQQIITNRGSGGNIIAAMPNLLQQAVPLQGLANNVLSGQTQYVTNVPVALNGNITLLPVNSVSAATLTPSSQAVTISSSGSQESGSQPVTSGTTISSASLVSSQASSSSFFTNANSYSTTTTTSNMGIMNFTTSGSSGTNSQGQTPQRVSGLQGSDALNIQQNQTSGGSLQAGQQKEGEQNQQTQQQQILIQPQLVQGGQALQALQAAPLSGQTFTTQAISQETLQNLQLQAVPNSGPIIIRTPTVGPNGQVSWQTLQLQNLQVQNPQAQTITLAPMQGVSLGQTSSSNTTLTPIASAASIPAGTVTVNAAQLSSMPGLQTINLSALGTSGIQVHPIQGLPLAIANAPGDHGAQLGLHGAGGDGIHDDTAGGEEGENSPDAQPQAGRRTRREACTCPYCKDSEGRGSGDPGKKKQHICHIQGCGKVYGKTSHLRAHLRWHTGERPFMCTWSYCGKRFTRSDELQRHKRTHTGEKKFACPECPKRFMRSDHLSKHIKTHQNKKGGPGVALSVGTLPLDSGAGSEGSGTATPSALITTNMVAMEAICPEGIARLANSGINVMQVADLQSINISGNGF
Chain of purified Sp1 (Promega Corp.) (P08047 8-785 limits assumed): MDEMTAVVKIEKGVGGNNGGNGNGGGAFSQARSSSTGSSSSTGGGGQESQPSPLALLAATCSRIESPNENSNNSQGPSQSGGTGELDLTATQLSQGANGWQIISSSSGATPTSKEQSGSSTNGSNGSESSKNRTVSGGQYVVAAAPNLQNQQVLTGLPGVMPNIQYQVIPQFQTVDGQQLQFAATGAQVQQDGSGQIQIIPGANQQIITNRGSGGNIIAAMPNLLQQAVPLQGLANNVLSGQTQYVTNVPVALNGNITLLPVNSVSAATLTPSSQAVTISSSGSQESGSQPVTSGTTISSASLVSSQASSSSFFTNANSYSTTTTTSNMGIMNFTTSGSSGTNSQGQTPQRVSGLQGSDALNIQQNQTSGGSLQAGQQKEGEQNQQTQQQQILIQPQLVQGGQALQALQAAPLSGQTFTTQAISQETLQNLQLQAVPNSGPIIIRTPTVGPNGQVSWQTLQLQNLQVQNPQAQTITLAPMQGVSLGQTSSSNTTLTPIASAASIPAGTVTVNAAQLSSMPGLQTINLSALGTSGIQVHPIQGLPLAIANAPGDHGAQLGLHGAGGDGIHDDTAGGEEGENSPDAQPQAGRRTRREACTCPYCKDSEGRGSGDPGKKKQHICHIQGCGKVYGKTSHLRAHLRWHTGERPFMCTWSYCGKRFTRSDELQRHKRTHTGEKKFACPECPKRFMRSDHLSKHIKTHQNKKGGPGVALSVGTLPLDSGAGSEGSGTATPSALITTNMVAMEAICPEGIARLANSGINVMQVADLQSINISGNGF

reduction in Sp1 binding to a labeled consensus Sp1 site (EMSA with purified proteins) [1]: 20%
Substance: glutathione S-transferase (GST)-huntingtin fusion protein with 20 glutamines (from UniProt P42858 1-88)

inhibition of Sp1 binding to a labeled consensus Sp1 site (EMSA with purified proteins) [1]: 70%
Substance: glutathione S-transferase (GST)-huntingtin fusion protein with 51 glutamines (from UniProt P42858 1-88)

decrease of Sp1 binding to its D2 binding site (EMSA, nuclear extracts of caudate, grade 1 HD brain against control brain) [2]: 39% | decrease of Sp1 binding to its D2 binding site (EMSA, nuclear extracts of caudate, grade 4 HD brain against control brain) [2]: 48%
Substance: huntingtin in human HD brain tissue (endogenous) (from UniProt P42858 1-3142)

inhibition of Sp1 binding to a labeled D2 promoter fragment (EMSA, nuclear extracts of transfected striatal cells) [3]: 55%
Substance: mutant full-length huntingtin with 75 glutamines (HttQ75), P42858 1-3142
